Three molecules from patent US20090304651A1 (published 2009) can be followed below.

Where two headings read alike, the source gives them in different places.

Experiment [1] addresses T1, recombinant human IGF-II (Insulin-like Growth Factor II) (human, UniProt P01344 25-91, biotinylated (Biotinyl-IGF-II, GroPep) where immobilised in SPR, site not stated; not biotinylated in ITC and as SPR analyte).
T1 construct: also called IGF2; IGF-2
The experiment in a line: SPR (Biacore). A general note: SPR reads the build-up and loss of mass on a sensor chip optically.

Experiment [2] deals with T1, recombinant human IGF-II (Insulin-like …). The experiment is described as follows: ITC, IGF-II titrated into domain 11. The method, then:
Calorimetric measurements were performed using a VP-ITC microcalorimeter (MicroCal). All solutions were thoroughly degassed before use by stirring under vacuum. […] The sample cell contained either wild type domain 11 (7 uM) or the E1544A mutant (8 μM), also in HBS-E buffer. To correct for the heat effects of dilution and mixing, reaction heats obtained from a control experiment, in which IGF2 was injected into HBS-E, were subtracted. Calorimetric data were analysed using MicroCal ORIGIN software (version 5.0) supplied with the instrument. Thermodynamic parameters were derived by fitting the binding isotherms to a single-site binding model. Values for dissociation affinity constants (KD) were determined from duplicate experiments.
In order to validate the SPR sensorgram data, ITC was used to assess the binding affinity between domain 11 and IGF-II. The affinity of the E1544A mutant was also assessed by ITC in order to confirm whether use of a second technique agreed as to the apparent increase in affinity (FIG. 6 and Table 6). Titrations were performed using 17×15 μl injections of 40 μM IGF-II (after an initial 7.51 injection) into the reaction cell containing wild type domain 11 or the E1544A mutant. […] The two fold differences may be simply accounted for by the fidelity of both techniques.
On the technique in general: ITC needs no label: the signal is the heat of the interaction.

The target is the same in experiment [3]. The experiment is described as follows: SPR, IGF-II immobilised, kinetic fit. The method, then:
(§1) Duplicate analyte injections were performed at concentrations of 4096, 2048, 1024, 512, 256, 128, 64, 32, 16 and 8 nM.
(§2) Kinetic analysis by Surface Plasmon Resonance (SPR) was conducted on a BIAcore 3000 biosensor (BIAcore, Uppsala, Sweden) at 25° C. in HBS-EP (10 mM HEPES, pH 7.4, 150 mM NaCl, 3 mM EDTA, 0.005% surfactant P20) at a flow rate of 40 μl/min. […] Kinetic experiments consisted of a two minute injection of analyte followed by a 100 s dissociation phase in running buffer, after which the binding surface was regenerated with a 2 minute injection of 2 M MgCl₂. A blank flow cell was used for in-line reference subtraction of changes due to differences in refractive index of running buffer versus sample and a buffer-only injection was used to subtract instrument noise and drift. Injections were performed in duplicate for each concentration and in a randomised order. Kinetic parameters were determined by global fitting of sensorgrams to a two-state (conformational change) binding model using BIAevaluation software version 4.0.1. In all cases the minor component made an insignificant contribution to the overall affinity and as such only the kinetic parameters of the major binding component were used. For each interaction the dissociation affinity constant (KD) was also calculated by fitting of the response of each concentration at equilibrium to a steady-state affinity model using BIAevaluation.

For experiment [4] the target is unchanged. The experiment is described as follows: SPR, IGF-II immobilised, steady state. The procedure: as §1, §2
For experiment [5] the target is unchanged. The experiment in a line: SPR, IGF-II immobilised, kinetic fit. The method, boiled down:
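Pichia pastoris-secreted, His-tag-purified domain 11 proteins were injected in duplicate, in randomised order, over ~50 RU biotinylated IGF-II captured on a streptavidin Sensor Chip SA. Runs used a BIAcore 3000 at 25° C in HBS-EP at 40 μl/min, with 2 min injections, 100 s dissociation and 2 M MgCl₂ regeneration. Analyte ran at 4096–8 nM, or 16384–32 nM for three constructs. Association and dissociation rates and Kd came from global sensorgram fitting in BIAevaluation 4.0.1, after blank-flow-cell and buffer-injection subtraction.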
The source holds these as a separate data set.

The target is the same in experiment [6]. The experiment in a line: SPR, steady-state KD relative to wild type. An outline of the steps: (§3)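 Pichia pastoris-secreted, His-tag-purified domain 11 proteins were injected in duplicate over ~50 RU biotinylated IGF-II on a streptavidin Sensor Chip SA. Runs used a BIAcore 3000 at 25° C in HBS-EP at 40 μl/min, with 2 min injections and blank-flow-cell and buffer-injection subtraction. Analyte ran at 4096–8 nM, or 16384–32 nM for three constructs.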

Experiment [7] has the same target. The experiment in a line: SPR, IGF-II immobilised, steady state. The method, boiled down:
as §3
The source holds these as a separate data set.

Experiment [8] has the same target. The experiment is described as follows: SPR, steady-state KD relative to wild type. The method, then: as §1, §2
The source holds these as a separate data set.

T1 sequence (P01344 25-91 limits assumed): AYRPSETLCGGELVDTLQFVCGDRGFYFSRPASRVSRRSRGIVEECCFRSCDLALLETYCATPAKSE

B1: wild type IGF2R domain 11 (amino acids 1511-1650) with C-terminal His6 tag, from Pichia pastoris (receptor)
chain: NEHDDCQVTNPSTGHLFDLSSLSGRAGFTAAYSEKGLVYMSICGENENCPPGVGACFGQTRISVGKANKRLRYVDQVLQLVYKDGSPCPSKSGLSYKSVISFVCRPEAGPTNRPMLISLDKQTCTLFFSWHTPLACEQATHHHHHH
notes: also called WT; wild type domain 11
Regarding B1, the dissociation constant (Kd) (in general, the concentration at which binding is half-saturated) turned out to be 103 nM in experiment [1]; 150 nM in experiment [2]; 102 nM in experiment [3]; 103 nM in experiment [4]; 119 nM in experiment [5]; 103 nM in experiment [7]. Besides, the off-rate (koff) (in general, the first-order rate constant of dissociation) in experiment [3] is 0.053 s⁻¹; in experiment [5], 0.0787 s⁻¹. Besides, the kon (in general, a measure of how fast the partners come together) was 525000 M⁻¹ s⁻¹ in experiment [3] and 662000 M⁻¹ s⁻¹ in experiment [5]. The “Relative Affinity” value in experiment [6] and in experiment [8] was 1 fold (wild type = 1.00) each time.

B2: IGF2R domain 11 E1544A (amino acids 1511-1650, C-terminal His6 tag, from Pichia pastoris) (receptor)
chain: NEHDDCQVTNPSTGHLFDLSSLSGRAGFTAAYSAKGLVYMSICGENENCPPGVGACFGQTRISVGKANKRLRYVDQVLQLVYKDGSPCPSKSGLSYKSVISFVCRPEAGPTNRPMLISLDKQTCTLFFSWHTPLACEQATHHHHHH
On to B2, for which the Kd turned out to be 37 nM in experiment [1]; 81.4 nM in experiment [2]; 35.9 nM in experiment [3]; 37 nM in experiment [4]; 45.5 nM in experiment [5]; 37 nM in experiment [7]. For the same molecule, the values for the off-rate constant (koff) in experiment [3] and in experiment [5] were 0.033 s⁻¹ and 0.0558 s⁻¹, respectively. In addition, the kon in experiment [3] came out at 934000 M⁻¹ s⁻¹; in experiment [5] it was 1.23e+06 M⁻¹ s⁻¹. Further, the “Relative Affinity” value in experiment [6] and in experiment [8] was 2.79 fold (wild type = 1.00) throughout.

B3: IGF2R domain 11 E1544K (amino acids 1511-1650, C-terminal His6 tag, from Pichia pastoris) (receptor)
chain: NEHDDCQVTNPSTGHLFDLSSLSGRAGFTAAYSKKGLVYMSICGENENCPPGVGACFGQTRISVGKANKRLRYVDQVLQLVYKDGSPCPSKSGLSYKSVISFVCRPEAGPTNRPMLISLDKQTCTLFFSWHTPLACEQATHHHHHH
notes: also called enhanced mutant
B3: the Kd is 16.9 nM in experiment [1]; 26.4 nM in experiment [2]; 15.2 nM in experiment [3]; 16.9 nM in experiment [4]; 20.5 nM in experiment [5]; 16.9 nM in experiment [7]. In addition, the koff in experiment [3] was determined as 0.023 s⁻¹; in experiment [5] it was 0.0406 s⁻¹. Further, the association rate constant (kon) in experiment [3] came out at 1.52e+06 M⁻¹ s⁻¹; in experiment [5] it was 2.02e+06 M⁻¹ s⁻¹. Moreover, the “Relative Affinity” value in experiment [6] and in experiment [8] was 6.12 fold (wild type = 1.00) each time.
